Source: the Immune Epitope Database (IEDB)
Values belong to the sequence of their own block, whether it stands above or below them.

Legend:
HLA-A*01:01 = assay: IEDB peptide-MHC binding, purified MHC/direct/fluorescence; filed as Kd, often an IC50 or EC50 that approximates it; ≥ and ≤ were set here for values at or beyond the usual limits of such assays
HLA-A*02:01 [1] = assay: as above
HLA-A*11:01 = assay: as above
HLA-A*31:01 = assay: as above
HLA-A*69:01 = assay: as above
HLA-B*07:02 = assay: as above
HLA-B*08:02 = assay: as above
HLA-B*08:03 = assay: as above
HLA-B*15:01 = assay: as above
HLA-B*15:02 = assay: as above
HLA-B*15:17 = assay: as above
HLA-B*27:05 = assay: as above
HLA-B*39:01 [2] = assay: as above
HLA-B*46:01 = assay: as above
HLA-B*48:01 = assay: as above
HLA-B*57:01 = assay: as above
HLA-B*58:01 = assay: as above
HLA-A*26:01 [3] = assay: IEDB peptide-MHC binding, purified MHC/competitive/fluorescence; filed as Kd, often an IC50 or EC50 that approximates it; ≥ and ≤ were set here for values at or beyond the usual limits of such assays
HLA-A*26:02 = assay: as above
HLA-A*30:01 = assay: as above; conditions: source organism: Zaire ebolavirus
HLA-A*68:02 [4] = assay: as above; conditions: source organism: Zaire ebolavirus
HLA-B*35:01 [5] = assay: as above; conditions: source organism: Zaire ebolavirus
HLA-C*06:02 = assay: IEDB peptide-MHC binding, purified MHC/direct/fluorescence; filed as Kd, often an IC50 or EC50 that approximates it; ≥ and ≤ were set here for values at or beyond the usual limits of such assays
HLA-A*02:01 [6] = assay: IEDB peptide-MHC binding, purified MHC/competitive/radioactivity; ≥ and ≤ were set here for values at or beyond the usual limits of such assays; conditions: source organism: Rhinovirus C
HLA-C*08:02 = assay: IEDB peptide-MHC binding, purified MHC/direct/fluorescence; filed as Kd, often an IC50 or EC50 that approximates it; ≥ and ≤ were set here for values at or beyond the usual limits of such assays
HLA-C*12:03 = assay: as above
HLA-A*02:01 [7] = assay: IEDB peptide-MHC binding, purified MHC/competitive/fluorescence; filed as Kd, often an IC50 or EC50 that approximates it; ≥ and ≤ were set here for values at or beyond the usual limits of such assays
HLA-A*68:02 [8] = assay: IEDB peptide-MHC binding, purified MHC/direct/fluorescence; filed as Kd, often an IC50 or EC50 that approximates it; ≥ and ≤ were set here for values at or beyond the usual limits of such assays; conditions: source organism: Influenza A virus (A/Quail/Shanghai/8/96(H9N2))
HLA-B*08:01 = assay: as above
HLA-B*35:01 [9] = assay: as above
HLA-C*03:03 = assay: as above; conditions: source organism: Salmonella enterica subsp. enterica serovar Typhi str. CT18
HLA-C*05:01 = assay: as above; conditions: source organism: Salmonella enterica subsp. enterica serovar Typhi str. CT18
HLA-A*32:07 = assay: IEDB peptide-MHC binding, purified MHC/competitive/fluorescence; filed as Kd, often an IC50 or EC50 that approximates it; ≥ and ≤ were set here for values at or beyond the usual limits of such assays; conditions: source organism: Salmonella enterica subsp. enterica serovar Typhi
HLA-A*32:15 = assay: as above; conditions: source organism: Salmonella enterica subsp. enterica serovar Typhi
HLA-A*68:23 = assay: as above; conditions: source organism: Salmonella enterica subsp. enterica serovar Typhi
HLA-B*15:42 = assay: as above; conditions: source organism: Salmonella enterica subsp. enterica serovar Typhi
HLA-B*39:01 [10] = assay: as above
HLA-B*45:06 = assay: as above; conditions: source organism: Salmonella enterica subsp. enterica serovar Typhi
HLA-B*83:01 = assay: as above; conditions: source organism: Salmonella enterica subsp. enterica serovar Typhi
HLA-C*14:02 = assay: as above; conditions: source organism: Salmonella enterica subsp. enterica serovar Typhi
HLA-A*03:01 = assay: IEDB peptide-MHC binding, purified MHC/direct/fluorescence; filed as Kd, often an IC50 or EC50 that approximates it; ≥ and ≤ were set here for values at or beyond the usual limits of such assays; conditions: source organism: Rickettsia prowazekii
HLA-A*26:01 [11] = assay: as above; conditions: source organism: Rickettsia prowazekii
HLA-B*40:01 = assay: as above; conditions: source organism: Rickettsia prowazekii
HLA-B*44:02 = assay: as above; conditions: source organism: Rickettsia prowazekii
[12] = source organism: Ebola virus - Mayinga, Zaire, 1976
[13] = source organism: Ravn virus - Ravn, Kenya, 1987
[14] = source organism: Zaire ebolavirus
[15] = source organism: Pseudomonas putida
[16] = source organism: Pseudomonas aeruginosa PACS2
[17] = source organism: Escherichia coli 536
[18] = source organism: Influenza A virus (A/Quail/Shanghai/8/96(H9N2))
[19] = source organism: Salmonella enterica subsp. enterica serovar Typhi
[20] = source organism: Rickettsia prowazekii
[21] = source organism: Salmonella enterica

Sequence: FIYFGKKQY
Kd (HLA-A*01:01; [12]): 0.451 µM
Kd (HLA-A*02:01 [1]; [12]): ≥ 20 µM
Kd (HLA-A*11:01; [12]): ≥ 20 µM
Kd (HLA-A*31:01; [12]): ≥ 20 µM
Kd (HLA-A*69:01; [12]): ≥ 20 µM
Kd (HLA-B*07:02; [12]): ≥ 20 µM
Kd (HLA-B*08:02; [13]): ≥ 20 µM
Kd (HLA-B*08:03; [13]): ≥ 20 µM
Kd (HLA-B*15:01; [12]): 0.067 µM
Kd (HLA-B*15:02; [13]): 0.008 µM
Kd (HLA-B*15:17; [12]): 0.135 µM
Kd (HLA-B*27:05; [12]): ≥ 20 µM
Kd (HLA-B*39:01 [2]; [13]): ≥ 20 µM
Kd (HLA-B*46:01; [12]): ≥ 20 µM
Kd (HLA-B*48:01; [12]): ≥ 20 µM
Kd (HLA-B*57:01; [12]): 7.13 µM
Kd (HLA-B*58:01; [12]): ≥ 20 µM
Kd (HLA-A*26:01 [3]; [14]): 2.3 µM
Kd (HLA-A*26:02; [14]): ≥ 20 µM
Kd (HLA-A*30:01): ≥ 20 µM
Kd (HLA-A*68:02 [4]): 4.98 µM
Kd (HLA-B*35:01 [5]): 1.49 µM

Sequence: FQYLLPGFVL
Kd (HLA-C*06:02; source organism: Variola virus): 8.62 µM

Sequence: GLEPLDLNT
IC50 (HLA-A*02:01 [6]): 0.5 µM

Sequence: IVHPPMLYM
Kd (HLA-B*15:17; [15]): 0.0611 µM
Kd (HLA-B*57:01; source organism: Vibrio vulnificus CMCP6): 2.17 µM
Kd (HLA-B*58:01; [15]): 5.98 µM
Kd (HLA-C*08:02; [16]): ≥ 20 µM
Kd (HLA-C*12:03; [16]): 0.062 µM

Kd (HLA-C*08:02; [17]): ≥ 20 µM
Kd (HLA-A*02:01 [7]; [17]): 0.0011 µM
Sequence: LLDEYRDYI

Sequence: LVGGREWSY
Kd (HLA-A*01:01; [18]): ≥ 20 µM
Kd (HLA-A*02:01 [1]; [18]): ≥ 20 µM
Kd (HLA-A*11:01; [18]): ≥ 20 µM
Kd (HLA-A*31:01; [18]): ≥ 20 µM
Kd (HLA-A*68:02 [8]): ≥ 20 µM
Kd (HLA-A*69:01; [18]): ≥ 20 µM
Kd (HLA-B*07:02; [18]): ≥ 20 µM
Kd (HLA-B*08:01; [18]): ≥ 20 µM
Kd (HLA-B*08:02; [18]): ≥ 20 µM
Kd (HLA-B*08:03; [18]): ≥ 20 µM
Kd (HLA-B*15:01; [18]): 1.19 µM
Kd (HLA-B*15:02; [18]): ≥ 20 µM
Kd (HLA-B*15:17; [18]): 1.89 µM
Kd (HLA-B*27:05; [18]): ≥ 20 µM
Kd (HLA-B*35:01 [9]; [18]): 0.843 µM
Kd (HLA-B*39:01 [2]; [18]): ≥ 20 µM
Kd (HLA-B*46:01; [18]): ≥ 20 µM
Kd (HLA-B*48:01; [18]): ≥ 20 µM
Kd (HLA-B*57:01; [18]): 1.3 µM
Kd (HLA-B*58:01; [18]): ≥ 20 µM
Kd (HLA-A*26:01 [3]; [18]): ≥ 20 µM
Kd (HLA-A*26:02; [18]): ≥ 20 µM

Sequence: WTFTPTTPL
Kd (HLA-C*03:03): ≤ 0.001 µM
Kd (HLA-C*05:01): ≥ 20 µM
Kd (HLA-C*12:03; source organism: Salmonella enterica subsp. enterica serovar Typhi str. CT18): 0.212 µM
Kd (HLA-A*02:01 [7]; [19]): 0.0058 µM
Kd (HLA-A*26:01 [3]; [19]): 0.581 µM
Kd (HLA-A*32:07): 0.765 µM
Kd (HLA-A*32:15): 0.0575 µM
Kd (HLA-A*68:23): 0.0004 µM
Kd (HLA-B*15:42): ≥ 5 µM
Kd (HLA-B*39:01 [10]; [19]): 0.469 µM
Kd (HLA-B*45:06): ≥ 5 µM
Kd (HLA-B*83:01): ≥ 5 µM
Kd (HLA-C*14:02): 0.0385 µM

Sequence: YGGKKAVTY
Kd (HLA-A*01:01; [20]): ≥ 20 µM
Kd (HLA-A*02:01 [1]; [20]): ≥ 20 µM
Kd (HLA-A*03:01): ≥ 20 µM
Kd (HLA-A*11:01; [20]): ≥ 20 µM
Kd (HLA-A*26:01 [11]): ≥ 20 µM
Kd (HLA-A*31:01; [20]): ≥ 20 µM
Kd (HLA-A*69:01; [20]): ≥ 20 µM
Kd (HLA-B*07:02; [20]): ≥ 20 µM
Kd (HLA-B*08:01; [20]): ≥ 20 µM
Kd (HLA-B*15:01; [20]): 1.4 µM
Kd (HLA-B*15:02; [20]): ≥ 20 µM
Kd (HLA-B*27:05; [20]): ≥ 20 µM
Kd (HLA-B*35:01 [9]; [20]): 0.249 µM
Kd (HLA-B*40:01): ≥ 20 µM
Kd (HLA-B*44:02): ≥ 20 µM
Kd (HLA-B*46:01; [20]): ≥ 20 µM
Kd (HLA-B*58:01; [20]): ≥ 20 µM

Sequence: YRYISFLVL
Kd (HLA-C*06:02; [21]): 0.651 µM
Kd (HLA-B*39:01 [10]; [21]): 0.536 µM
